Target: FleQ (Pseudomonas aeruginosa PAO1) (UniProt G3XCV0)
Experiment: EMSA

Sequence of FleQ (Pseudomonas aeruginosa PAO1) (G3XCV0 whole entry): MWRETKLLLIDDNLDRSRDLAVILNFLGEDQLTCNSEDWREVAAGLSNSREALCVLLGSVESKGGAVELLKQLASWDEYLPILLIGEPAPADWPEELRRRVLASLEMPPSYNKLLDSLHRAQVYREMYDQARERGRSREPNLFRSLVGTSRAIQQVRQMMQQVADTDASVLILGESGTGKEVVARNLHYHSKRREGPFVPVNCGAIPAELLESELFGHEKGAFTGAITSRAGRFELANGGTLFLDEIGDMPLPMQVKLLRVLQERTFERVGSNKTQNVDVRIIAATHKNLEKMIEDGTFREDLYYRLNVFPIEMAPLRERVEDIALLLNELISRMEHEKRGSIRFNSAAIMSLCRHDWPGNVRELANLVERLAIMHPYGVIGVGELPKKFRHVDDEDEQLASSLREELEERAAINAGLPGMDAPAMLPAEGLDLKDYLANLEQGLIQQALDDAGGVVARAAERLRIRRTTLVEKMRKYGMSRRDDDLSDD

How did the binding turn out when “GAGTTGCAGCCTTTCCTTGCCGTCAGCCATGGCGCACCTCCGGACGAGGGTACGCGCAGGGGTCTTCGAGATGGCTCATTATTCTTGTCTCCACTCTGTCAGAGGCCGTGTCTTGCGCACGGATGAGCGGATTATTGGCGGCGGATGTAAGACGCCGTTGAACGCGCGGATCGAAGATGTAAAAAGCTGTAAGGAAGTTGTTCGCCGCG (double strand) [lysP promoter (4981)]” was run?
Its binding is “binds”.

Reference: paper PMC9927353
